Results as given in the RNAGym collection of RNA variant scans (doi:10.7554/elife.90254).

B1: OR4K15 (parent)
chain: GUUAACGGUCAUAGGCCAUGGAAACUAGGAGCACCAUUUCGCUGCCAGUGAAGAAAUGAACAAAGAAAAUCUGGGCCAGGCAGGCAUCAAAAGAAAUAGUCUUGCGCUCAACCAGAAAGUCUGUAAUCAUUUUAAGGGUA

Variants of: B1
Test: self-cleavage, relative activity (ratio to wild type); higher = more cleavage; in vitro, sequencing; the parent is a self-cleaving ribozyme

Q: Which self-cleavage does the source give for U72C A110G here?
A: 0.06

Q: For U72C A117U, which self-cleavage is on record?
A: 0.15

Q: Which self-cleavage does the source give for G74A U131C here?
A: 0.19

Q: For U72A U127G, which self-cleavage is on record?
A: 0.23

Q: Which self-cleavage does the source give for G73A C88U here?
A: 0.17

Q: With C76U A94G as the variant, how does the self-cleavage read?
A: 0.13

Q: With C76G C121U as the variant, how does the self-cleavage read?
A: 0.08

Q: With G79A U120A as the variant, how does the self-cleavage read?
A: 0.13

Q: For G79A U120G, which self-cleavage is on record?
A: 0.11

Q: Which self-cleavage does the source give for G80A A95U here?
A: 0.17

Q: With G75A U97C as the variant, how does the self-cleavage read?
A: 0.15

Q: With C76U U124A as the variant, how does the self-cleavage read?
A: 0.02

Q: For A78G A111G, which self-cleavage is on record?
A: 0.03

Q: With G73A U122C as the variant, how does the self-cleavage read?
A: 0.04

Q: Which self-cleavage does the source give for G79C U132C here?
A: 0.06

Q: For U72A A96G, which self-cleavage is on record?
A: 0.2

Q: For C71U A114U, which self-cleavage is on record?
A: 0.06

Q: Which self-cleavage does the source give for C71U A114G here?
A: 0.05

Q: Which self-cleavage does the source give for C71U U131C here?
A: 0.25

Q: With G74U A117G as the variant, how does the self-cleavage read?
A: 0.02

Q: Which self-cleavage does the source give for U72C A125G here?
A: 0.07

Q: With U72A A94G as the variant, how does the self-cleavage read?
A: 0.02

Q: With C77U U133C as the variant, how does the self-cleavage read?
A: 2.55

Q: Which self-cleavage does the source give for C76U U108C here?
A: 0

Q: With U72C C81A as the variant, how does the self-cleavage read?
A: 0.26

Q: With U72A A82C as the variant, how does the self-cleavage read?
A: 0.35

Q: Which self-cleavage does the source give for A78G A96G here?
A: 0.24

Q: With A78C A111U as the variant, how does the self-cleavage read?
A: 0.01

Q: With A78U U124C as the variant, how does the self-cleavage read?
A: 0.26

Q: For G73A A111G, which self-cleavage is on record?
A: 0.02

Q: Which self-cleavage does the source give for G74U U97C here?
A: 0.22

Q: Which self-cleavage does the source give for U72A A125G here?
A: 0.05

Q: With G75A C81U as the variant, how does the self-cleavage read?
A: 0.21

Q: With U72C A78U as the variant, how does the self-cleavage read?
A: 0.15

Q: For A78U U132C, which self-cleavage is on record?
A: 0.48

Q: For U72C A90G, which self-cleavage is on record?
A: 0.54

Q: With A78U A94G as the variant, how does the self-cleavage read?
A: 0.33

Q: For A78U A94U, which self-cleavage is on record?
A: 0.4

Q: Which self-cleavage does the source give for U72C A92G here?
A: 0.21

Q: With A78G A89C as the variant, how does the self-cleavage read?
A: 0.43

Q: Which self-cleavage does the source give for A78G A89U here?
A: 0.24

Q: With U72A C101U as the variant, how does the self-cleavage read?
A: 0.04

Q: With G74A U102C as the variant, how does the self-cleavage read?
A: 0.05

Q: For C77U A90G, which self-cleavage is on record?
A: 2.13

Q: For G80A A92G, which self-cleavage is on record?
A: 0.16

Q: For A78C U127C, which self-cleavage is on record?
A: 0.18

Q: With U72A U132C as the variant, how does the self-cleavage read?
A: 0.23

Q: Which self-cleavage does the source give for U72A U132A here?
A: 0.25

Q: For U72C G136C, which self-cleavage is on record?
A: 0.31

Q: With U72C A89U as the variant, how does the self-cleavage read?
A: 0.45

Q: With U72G A92G as the variant, how does the self-cleavage read?
A: 0.42

Q: Which self-cleavage does the source give for G73A A89C here?
A: 0.14

Q: For U72A U130C, which self-cleavage is on record?
A: 0.13

Q: Which self-cleavage does the source give for G79A A117G here?
A: 0.09

Q: Which self-cleavage does the source give for G73U here?
A: 0.05

Q: Which self-cleavage does the source give for G73C here?
A: 0.23

Q: Which self-cleavage does the source give for G73A here?
A: 0.07

Q: With U72C C105U as the variant, how does the self-cleavage read?
A: 0.03

Q: For U72C G104A, which self-cleavage is on record?
A: 0.01

Q: Which self-cleavage does the source give for G74U A114G here?
A: 0.03

Q: For U72A A110G, which self-cleavage is on record?
A: 0.06

Q: Which self-cleavage does the source give for U72A A110U here?
A: 0.29

Q: Which self-cleavage does the source give for G74A A116G here?
A: 0.12

Q: For A78G A114U, which self-cleavage is on record?
A: 0.01

Q: Which self-cleavage does the source give for G79U A96G here?
A: 0.1

Q: With A78U G138A as the variant, how does the self-cleavage read?
A: 0.36

Q: Which self-cleavage does the source give for U72C C112U here?
A: 0.02

Q: With G74A U130C as the variant, how does the self-cleavage read?
A: 0.11

Q: With A78G C105U as the variant, how does the self-cleavage read?
A: 0.03

Q: Which self-cleavage does the source give for A78U A92G here?
A: 0.29

Q: Which self-cleavage does the source give for A78U A98U here?
A: 0.71

Q: For G80A A129G, which self-cleavage is on record?
A: 0.09

Q: For A78U A114U, which self-cleavage is on record?
A: 0.03

Q: With A78U A114G as the variant, how does the self-cleavage read?
A: 0.11

Q: For G73A U131C, which self-cleavage is on record?
A: 0.08

Q: Which self-cleavage does the source give for A78C A125G here?
A: 0.04

Q: Which self-cleavage does the source give for G74A U139C here?
A: 0.19

Q: Which self-cleavage does the source give for G74A A94G here?
A: 0.13

Q: For A78C A94G, which self-cleavage is on record?
A: 0.39

Q: With A78G U122G as the variant, how does the self-cleavage read?
A: 0.15

Q: With A78G U122C as the variant, how does the self-cleavage read?
A: 0.19

Q: For U72A U122C, which self-cleavage is on record?
A: 0.12

Q: For A78U C128A, which self-cleavage is on record?
A: 0.04

Q: For U72A A92G, which self-cleavage is on record?
A: 0.26

Q: For A78C C128U, which self-cleavage is on record?
A: 0.29

Q: Which self-cleavage does the source give for G75A U108A here?
A: 0.01

Q: With G73A U127C as the variant, how does the self-cleavage read?
A: 0.11

Q: Which self-cleavage does the source give for A78U U102A here?
A: 0.16

Q: For C77U U103C, which self-cleavage is on record?
A: 2.12

Q: For G75U A90U, which self-cleavage is on record?
A: 0.12

Q: Which self-cleavage does the source give for U72C C109A here?
A: 0.07

Q: With U72C C109U as the variant, how does the self-cleavage read?
A: 0.06

Q: Which self-cleavage does the source give for G80U A91G here?
A: 0.11

Q: For G75C A116G, which self-cleavage is on record?
A: 0.05

Q: With A78U A111U as the variant, how does the self-cleavage read?
A: 0.04

Q: With C77U A129G as the variant, how does the self-cleavage read?
A: 1.77

Q: With G79U A135G as the variant, how does the self-cleavage read?
A: 0.02

Q: Which self-cleavage does the source give for U72G A86G here?
A: 0.1

Q: For A78G A82G, which self-cleavage is on record?
A: 0.13

Q: With A78U U87G as the variant, how does the self-cleavage read?
A: 0.09

Q: Which self-cleavage does the source give for A78G A118U here?
A: 0.21

Q: For G74A A82U, which self-cleavage is on record?
A: 0.32

Q: Which self-cleavage does the source give for G75A A116G here?
A: 0.06

Q: Which self-cleavage does the source give for A78U A96G here?
A: 0.38

Q: Which self-cleavage does the source give for G75C A111G here?
A: 0

Q: With G80U U100C as the variant, how does the self-cleavage read?
A: 0.16

Q: Which self-cleavage does the source give for G73U A86C here?
A: 0.19

Q: With U72C A140C as the variant, how does the self-cleavage read?
A: 0.44

Q: Which self-cleavage does the source give for A78U U120G here?
A: 0.37

Q: For A78U U120C, which self-cleavage is on record?
A: 0.12

Q: Which self-cleavage does the source give for U72G A114U here?
A: 0.6

Q: For C77U A126G, which self-cleavage is on record?
A: 1.49

Q: With G79A A86U as the variant, how does the self-cleavage read?
A: 0.09

Q: With G79A A86G as the variant, how does the self-cleavage read?
A: 0.22

Q: With A78G C88A as the variant, how does the self-cleavage read?
A: 0.17

Q: Which self-cleavage does the source give for G79A A91C here?
A: 0.09

Q: With U72G U87C as the variant, how does the self-cleavage read?
A: 0.31

Q: With U72C A91C as the variant, how does the self-cleavage read?
A: 0.27

Q: With A78U U100C as the variant, how does the self-cleavage read?
A: 1.1

Q: With A78G G123U as the variant, how does the self-cleavage read?
A: 0.25

Q: For G74A C128U, which self-cleavage is on record?
A: 0.13

Q: With U72C C76U as the variant, how does the self-cleavage read?
A: 0.22

Q: For U72C A86U, which self-cleavage is on record?
A: 0.14

Q: With U72C A86G as the variant, how does the self-cleavage read?
A: 0.14

Q: Which self-cleavage does the source give for A78G G106C here?
A: 0.02

Q: With A78G G106U as the variant, how does the self-cleavage read?
A: 0.01

Q: For G79A U108C, which self-cleavage is on record?
A: 0.01

Q: Which self-cleavage does the source give for A78G A95G here?
A: 0.26

Q: Which self-cleavage does the source give for U72G A118G here?
A: 0.22

Q: Which self-cleavage does the source give for G74U A94G here?
A: 0.41

Q: Which self-cleavage does the source give for C77U A125G here?
A: 1.37

Q: With A78G A129G as the variant, how does the self-cleavage read?
A: 0

Q: With A78G A129C as the variant, how does the self-cleavage read?
A: 0.11

Q: Which self-cleavage does the source give for U72C U131G here?
A: 0.28

Q: Which self-cleavage does the source give for G80A A91G here?
A: 0.08

Q: For U72C U87A, which self-cleavage is on record?
A: 0.4

Q: With U72C U87C as the variant, how does the self-cleavage read?
A: 0.22

Q: For A78G U120C, which self-cleavage is on record?
A: 0.19

Q: Which self-cleavage does the source give for G73U A116G here?
A: 0.11

Q: With C71U as the variant, how does the self-cleavage read?
A: 0.17

Q: For C71G, which self-cleavage is on record?
A: 0.24

Q: Which self-cleavage does the source give for G75U U87C here?
A: 0.11

Q: Which self-cleavage does the source give for A78U U108C here?
A: 0.01

Q: With G75A A117G as the variant, how does the self-cleavage read?
A: 0.07

Q: Which self-cleavage does the source give for G74A U120C here?
A: 0.1

Q: With U72A A89G as the variant, how does the self-cleavage read?
A: 0.36

Q: For A78U U127C, which self-cleavage is on record?
A: 0.07

Q: With U72C G84U as the variant, how does the self-cleavage read?
A: 0.35

Q: For U72C U124G, which self-cleavage is on record?
A: 0.07

Q: With U72C A94G as the variant, how does the self-cleavage read?
A: 0.07

Q: With U72C A94C as the variant, how does the self-cleavage read?
A: 0.1

Q: Which self-cleavage does the source give for G79A A94G here?
A: 0.15

Q: With C77A U122C as the variant, how does the self-cleavage read?
A: 0.6

Q: Which self-cleavage does the source give for C76U A86U here?
A: 0.08

Q: Which self-cleavage does the source give for A78G A92G here?
A: 0.13

Q: Which self-cleavage does the source give for C76U G123A here?
A: 0.13

Q: Which self-cleavage does the source give for U72A U120A here?
A: 0.17

Q: Which self-cleavage does the source give for C71A U120C here?
A: 0.24

Q: For U72G A90G, which self-cleavage is on record?
A: 0.39

Q: Which self-cleavage does the source give for C76U A82G here?
A: 0.09

Q: With A78U A125G as the variant, how does the self-cleavage read?
A: 0.03

Q: Which self-cleavage does the source give for U72C A126U here?
A: 0.4

Q: For U72C A126G, which self-cleavage is on record?
A: 0.12

Q: With G74A U100C as the variant, how does the self-cleavage read?
A: 0.45

Q: Which self-cleavage does the source give for U72C U100C here?
A: 0.34

Q: With C77A A114G as the variant, how does the self-cleavage read?
A: 0.32

Q: For A78C U102A, which self-cleavage is on record?
A: 0.02
